Earlier results in publication PMC5911825.

Target: Cys797 (UniProt position 797, LMPFGCLLDYV)
Assay: other (described only as 'titration experiments')
Details: wild-type EGFR; ligand state not stated

In the case of “Epidermal growth factor receptor (EGFR), wild type (Homo sapiens)”, the pKa is given as 5.5.
